Measurements taken from paper PMC2615626.

Target: Sulfolobus solfataricus 50S ribosomal subunit (S. solfataricus (endogenous in S. solfataricus cells)) (UniProt P55858)
Experiment: co-sedimentation

Chain of UniProt P55858 (P55858 whole entry, looked up, tested part not stated): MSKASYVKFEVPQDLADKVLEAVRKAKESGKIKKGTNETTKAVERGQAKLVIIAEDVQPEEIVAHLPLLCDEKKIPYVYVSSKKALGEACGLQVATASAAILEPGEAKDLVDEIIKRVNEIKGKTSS

stoichiometry N: 1 aIF6 per 50S
Substance: recombinant Sulfolobus solfataricus aIF6, His-tagged (natural protein)
